Target: the molecule itself
Assay: SEC-MALS; RBP-CPN at 0.5, 1.0 and 5 mg ml^-1; Superdex 75 Increase 10/300 GL; 10 mM sodium phosphate pH 7.8, 50 mM sodium chloride, 0.02% sodium azide; room temperature; monomer to dimer

B1: RBP-CPN (permuted N-terminal lobe of the ribose-binding protein from Thermotoga maritima) (domain or fragment)
chain: MKGKMAIVISTLNNPWFVVLAETAKQRAEQLGYEATIFDSQNDTAKESAHFDAIIAAGYDAIIFNPTDADGSIANVKRAKEAGIPVFCVDRGINARGLAVAQIYSDTSTQFPKLMARLAVEWADQYLRGG
notes: residue printed between position 263 and the HHHHHH tag; source: E. coli BL21 (DE3), purified (IMAC, SEC)
- stoichiometry N: 2

— article PMC9815098 (Acta Crystallographica. Section D, Structural Biology, 2023)
